# System: BIP and PDI, ERP72 and ERP44
# Assay: ER chaperone secretion assay, all four chaperones
# Type: cell-based, human
# Conditions: HeLa S3 cells
# From the text: Figure 1. ER retrieval signal abundance and affinity are not correlated. (a) Sequence logos for ER resident proteins with C-terminal KDEL retrieval signals and variants thereof calculated using frequency or protein abundance ([Itzhak et al., 2017]; [Itzhak et al., 2016]). (b) Combined cellular concentrations of ER resident proteins with canonical KDEL, RDEL, and HDEL retrieval sequences in HeLa cells and mouse brain. (c) Competition binding assays for [^3H]-TAEHDEL and unlabelled TAEKDEL, TAERDEL, and TAEHDEL to the KDEL receptor. IC50 values for the competing peptides were used to calculate the apparent KDwith the Cheng-Prusoff equation ([Cheng and Prusoff, 1973]). (d) Endogenous KDEL receptor redistribution was measured in COS-7 cells in the absence (-ligand) or presence of K/R/H/A/DDEL (mScarlet-xDEL^sec). TGN46 was used as a Golgi marker. Scale bar is 10 µm. […] The individual data points for the fraction of KDEL receptor fluorescence in the Golgi are plotted on the upper axes with sample sizes and p values. […] Endogenous ER chaperone secretion was measured by western blotting after challenge with different retrieval signals, and plotted as a bar graph showing mean ± SEM (n = 3). […] (a) Distribution of human KDELR1 and (b) KDELR2 was measured in COS-7 cells in the absence (-ligand) or presence of K/R/H/A/DDEL retrieval signals (K/R/H/A/DDEL^sec). […]
substance,measurement,value
"ADEL [pcDNA3.1 hGHss-mScarlet-H. sapiens BiP639-654K651A (ADEL^SEC), secreted mScarlet fusion with human BiP C-terminus, ADEL signal]","effect on ER retention of BIP, PDI, ERP72 and ERP44 (in words)",little effect on ER retention
